Paper PMC7363131, “Interaction of the Streptomyces Wbl protein WhiD with the principal sigma factor σ^HrdB depends on the WhiD [4Fe-4S] cluster” (The Journal of Biological Chemistry, 2020)

Molecular target: T1, S. venezuelae WhiD (SvWhiD), N-terminally His6-tagged, full length (S. venezuelae, [4Fe-4S] cluster bound as isolated (cluster loading ~90%); cluster-free (apo) form after exposure to O2; N-terminal methionine cleaved)
T1 construct: WhiD of Streptomyces venezuelae, Wbl family [4Fe-4S] protein; codon-optimized gene in pET28a (NdeI/HindIII); His-tagged protein 15,923 Da by LC-MS (predicted 15,924 Da without the N-terminal methionine); The holo ([4Fe-4S]) and apo (cluster-free) forms have the same polypeptide and are kept as one molecule; The assay and the 'only:' limit tell which form was tested; The preparation holds ~10% …
Experiment: native MS; nondenaturing ESI-MS titration; SvWhiD 3 μM with σ^HrdB4 0.75-21 μM, I151A FNR (3 μM) as internal standard, 250 mM ammonium acetate, pH 7.2; fractional saturation against free σ^HrdB4 fitted with a simple binding isotherm
Settings: both partners purified

B1: Domain 4 of the S. venezuelae principal sigma factor σ^HrdB (σ^HrdB4), N-terminally His6-tagged (domain or fragment)
chain: PADAVSFTLLQEQLHSVLDTLSEREAGVVSMRFGLTDGQPKTLDEIGKVYGVTRERIRQIESKTMSKLRHPSRSQVLRDYLD
Binder B1 has a Kd of 740 nM.
